In publication PMC3695229, “Identification of a Novel TGF-β-Binding Site in the Zona Pellucida C-terminal (ZP-C) Domain of TGF-β-Receptor-3 (TGFR-3)” (PLoS ONE, 2013):
One block for each binder: values may come before it.

B1: murine TGFR-3-ZP (recombinant ZP domain of TGF-β receptor type 3, residues 438-782, including the EHP) (domain or fragment, mouse, UniProt O88393 438-782, looked up)
chain: REPEEVQGGVNIALSVKCDNEKMVVAVDKDSFQTNGYSGMELTLLDPSCKAKMNGTHFVLESPLNGCGTRHRRSAPDGVVYYNSIVVQAPSPGDSSGWPDGYEDLESGDNGFPGDTDEGETAPLSRAGVVVFNCSLRQLRSPSGFQDQLDGNATFNMELYNTDLFLVPSPGVFSVAENEHVYVEVSVTKADQDLGFAIQTCFISPYSNPDRMSDYTIIENICPKDDSVKFYSSKRVHFPIPHAEVDKKRFSFVFKSVFNTSLLFLHCELTLCSRNKGSQKLPKCVTPDDACTSLDATMIWTMMQNKKTFTKPLAVVLQVDYKENVPNMKESSPVPPPPQIFHGLD
modifications: secretory glycoprotein; four potential N-glycosylation sites (positions 491, 570, 589 and 696)
notes: TGF-β receptor type 3 (TGFR-3, betaglycan), mouse, residues 438-782 (ZP core domain plus C-terminal extension 729-782 with the EHP); numbering adheres to UniProtKB/TrEMBL O88393 and includes the N-terminal signal peptide; From the forward primer the thrombin site LVPRGS precedes residue 438, so Gly-Ser probably remain after cleavage (surmised); Dimer by DLS and SEC only (apparent masses); also …
B3: TGFR-3-ZP(234) (domain or fragment, mouse, UniProt O88393 438-782, looked up)
chain: REPEEVQGGVNIALSVKCDNEKMVVAVDKDSFQTNGYSGMELTLLDPSCKAKMNGTHFVLESPLNGCGTRHRRSAPDGVVYYNSIVVQAPSPGDSSGWPDGYEDLESGDNGFPGDTDEGETAPLSRAGVVVFQCSLRQLRSPSGFQDQLDGQATFNMELYNTDLFLVPSPGVFSVAENEHVYVEVSVTKADQDLGFAIQTCFISPYSNPDRMSDYTIIENICPKDDSVKFYSSKRVHFPIPHAEVDKKRFSFVFKSVFQTSLLFLHCELTLCSRNKGSQKLPKCVTPDDACTSLDATMIWTMMQNKKTFTKPLAVVLQVDYKENVPNMKESSPVPPPPQIFHGLD
modifications: one remaining potential N-glycosylation site (N491)
notes: TGF-β receptor type 3 (TGFR-3, betaglycan), mouse, residues 438-782 with three of four potential N-glycosylation sites mutated to glutamine; numbering adheres to O88393 including the signal peptide; Same construct and vector as m1; also called glycosylation-attenuated TGFR-3-ZP variant; source: HEK293 EBNA cells, secreted, purified (Ni-Sepharose, thrombin cleavage, SEC); not shown: His6, …

What was measured:
[1] = target: the molecule itself; test: dynamic light scattering; TGFR-3-ZP alone, 2 mg/ml, 20 mM HEPES pH 7.4, 20°C; apparent molecular weight from hydrodynamic radius
TGFR-3-ZP(234) = target: B3; test: SPR; Biacore 2000; biotinylated ligands immobilised on streptavidin-coated CM5 chip, TGFR-3-ZP variants as analytes; 25°C, HBS500 (10 mM HEPES pH 7.4, 500 mM NaCl, 3.4 mM EDTA, 0.005% P20); apparent affinities from equilibrium binding; conditions: both partners purified
[2] = target: B1; test: as above; conditions: both partners purified
[3] = target: the molecule itself; test: SEC; analytical SEC of the ligand-free protein on Superdex 200 10/300, 4°C, 0.5 ml/min; apparent molecular weight against standards

Binder: B1
stoichiometry N [1]: 2

Kd (TGFR-3-ZP(234)): 34.6 µM
Kd [2]: 29.1 µM
B2: human BMP-2 (ligand, UniProt P12643 283-396, looked up)
chain: QAKHKQRKRLKSSCKRHPLYVDFSDVGWNDWIVAPPGYHAFYCHGECPFPLADHLNSTNHAIVQTLVNSVNSKIPKACCVPTELSAISMLYLDENEKVVLKNYQDMVVEGCGCR
modifications: biotinylated with Sulfo-NHS-LC-biotin (1 or 2 biotin moieties) for immobilisation
notes: bone morphogenetic protein 2, human; also called bone morphogenetic protein 2

Binder: B3
stoichiometry N [3]: 2
